Data published in article PMC4069081, “Multivalent Viral Capsids with Internal Cargo for Fibrin Imaging” (PLoS ONE, 2014).

What was measured:
[1] = target: fibrin clots formed from purified bovine fibrinogen with thrombin and CaCl2 (bovine) (UniProt P12799)
fibrin [2] = conditions: competitive binding to the fibrin polymerization pocket; ref [39], [40]; cited from earlier work
Excerpt: (§1) In this work, a peptide targeting group (GPR) with an affinity for fibrin was chosen to create a thrombus targeted VLP [38]. The GPR peptide was derived from the N-terminus of the α-chain of fibrin (Gly-Pro-Arg), and was discovered to bind to a pocket in the C-terminal region of the γ-chain [39], [40].

[3] = compared with original peptide (Gly-Pro-Arg); ref [41]; cited from earlier work
Excerpt: as §1

fibrin [4] = conditions: compared with original peptide (Gly-Pro-Arg); ref [41]; cited from earlier work
Experimental: In this work, a peptide targeting group (GPR) with an affinity for fibrin was chosen to create a thrombus targeted VLP [38]. The GPR peptide was derived from the N-terminus of the α-chain of fibrin (Gly-Pro-Arg), and was discovered to bind to a pocket in the C-terminal region of the γ-chain [39], [40]. […] A GPR peptide bearing an o-aminophenol for coupling to MS2 was prepared using solid phase peptide synthesis (Figure 1b). The sequence Gly-Gly-Ser-Lys-Gly-Tyr was added to the peptide to increase the spacing between the binding residues and the capsid, as well as provide a functional handle for modification (Tyr). For peptide samples used in op ...

Substance: GPR-MS2: bacteriophage MS2 T19pAF/N87C capsid with the GPR fibrin-targeting peptide coupled to its exterior
- thrombin-induced clotting time of fibrin (light scattering at 350 nm) at 222 nM MS2 capsid (~20 µM peptide) [1]: 51 min

Substance: GPS-MS2: bacteriophage MS2 T19pAF/N87C capsid with the GPS control peptide coupled to its exterior
- thrombin-induced clotting time of fibrin (light scattering at 350 nm) at 222 nM MS2 capsid (~20 µM peptide); unchanged [1]: 16 min

Substance: Gly-Pro-Arg [originally discovered peptide from N-terminus of the α-chain of fibrin]
- Inhibition of thrombin-mediated fibrin clotting (fibrin [2]): inhibit thrombin-mediated fibrin clotting

Substance: Gly-Pro-Arg-Pro-Pro
- Proteolytic resistance [3]: increased proteolytic resistance
- Fibrin binding of extended peptide (fibrin [4]): improved fibrin-binding

Substance: MS2 capsids (T19pAF/N87C) without peptide
- thrombin-induced clotting time of fibrin (light scattering at 350 nm) at 222 nM MS2 capsid; unchanged [1]: 16 min

Substance: free GPR peptide with C-terminal tyrosine
- peptide concentration at which thrombin-induced clotting is inhibited (10 µM to 1.7 mM tested) [1]: > 300 µM
- thrombin-induced clotting time of fibrin (light scattering at 350 nm) at 20 µM peptide; unchanged [1]: 18 min

Substance: free GPS peptide with C-terminal tyrosine
- thrombin-induced clotting time of fibrin (light scattering at 350 nm) at 20 µM peptide; unchanged [1]: 13 min
